Source: PMC4837482, “The complex binding mode of the peptide hormone H2 relaxin to its receptor RXFP1” (Nature Communications, 2016)
“Also recorded” adds a separate entry of the source. Where no end group is shown, it is not given here.

Legend:
RXFP1 [1] = biological target: T1, RXFP1 (Homo sapiens, UniProt Q9HBX9); conditions: versus H2 relaxin; cited from earlier work
T1 construct: transiently transfected human embryonic kidney (HEK) 293T cells expressing full-length RXFP1 and mutants; expressed in transfected cells; host or cells: HEK293T
T1 sequence (Q9HBX9 1-757): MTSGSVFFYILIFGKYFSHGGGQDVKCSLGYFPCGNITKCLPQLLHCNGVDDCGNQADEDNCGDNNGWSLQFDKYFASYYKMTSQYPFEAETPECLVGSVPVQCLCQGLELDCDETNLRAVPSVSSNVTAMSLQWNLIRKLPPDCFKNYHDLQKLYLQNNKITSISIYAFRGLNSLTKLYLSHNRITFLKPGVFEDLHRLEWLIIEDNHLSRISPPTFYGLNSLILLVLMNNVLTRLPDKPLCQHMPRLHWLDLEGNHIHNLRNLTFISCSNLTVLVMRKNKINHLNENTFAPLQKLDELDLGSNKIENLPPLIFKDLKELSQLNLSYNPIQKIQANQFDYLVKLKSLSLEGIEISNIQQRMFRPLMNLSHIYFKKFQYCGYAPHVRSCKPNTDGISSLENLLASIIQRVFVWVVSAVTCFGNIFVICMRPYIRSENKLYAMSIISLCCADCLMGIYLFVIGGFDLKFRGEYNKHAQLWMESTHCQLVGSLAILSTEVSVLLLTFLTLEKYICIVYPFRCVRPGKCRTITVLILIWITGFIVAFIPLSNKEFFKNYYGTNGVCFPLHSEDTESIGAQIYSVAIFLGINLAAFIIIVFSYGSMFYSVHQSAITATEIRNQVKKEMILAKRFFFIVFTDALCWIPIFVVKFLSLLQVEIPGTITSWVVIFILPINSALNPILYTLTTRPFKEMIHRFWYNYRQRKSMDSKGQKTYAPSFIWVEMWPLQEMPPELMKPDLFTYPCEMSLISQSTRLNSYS

RXFP1(1–72) = biological target: T2, RXFP1(1–72) (Homo sapiens, UniProt Q9HBX9); assay: NMR competition titration against the RXFP1(1–72)/Mn2+-DTPA-(A)-H2 complex; format: binding; conditions: 50 μM peptide added to 50 μM 15N-RXFP1(1–72) with 0.2 μM Mn2+-DTPA-(A)-H2; pH 6.8, 25 °C
T2 construct: GB1 (N, cleaved yes); made in house; host or cells: E. coli BL21 (DE3) trxB
T2 sequence (Q9HBX9 23-94 limits assumed): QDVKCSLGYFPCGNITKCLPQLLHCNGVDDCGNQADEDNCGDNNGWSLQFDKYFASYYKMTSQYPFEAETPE
Experimental: All RXFP1(1–72) protein samples for nuclear magnetic resonance (NMR) experiments were prepared from lyophilized protein in 50 mM imidazole, with 10 mM CaCl2 at pH 6.8. Recombinant human gene-2 H2 relaxin peptide was kindly provided by Corthera. EL1^(475–486)/EL2-GB1 samples were prepared as described above. Titrant and titrand were dialyzed in the same buffer in the same vessel. All NMR experiments were routinely collected at 25 °C on a 700-MHz Bruker Avance HDIII spectrometer equipped with triple resonance cryoprobe. […] Backbone assignments were made from 3D HNCACB, HNCOCACB, HNCO and HNCACO experiments. Spectra were processed using NMRPipe (ref. [43]) and typically Fourier-transformed after applying Lorentz-to-Gauss window functions in the direct dimension and cosine bells in the indirect dimensions. NMR data were analysed using SPARKY (Goddard, T.D. and Kneller, D.G., University of California, San Francisco). Assignments of the mutant RXFP1(1–72) proteins were determined from the assignments of wild-type RXFP1(1–72).
^15N{^1H}-NOE experiments[45] (2,048 × 256 data points) were acquired with a saturation pulse of 4 s and an additional relaxation delay of 5 s. Sample conditions were 150 μM RXFP(1–72) or mutants either without or with 450 μM H2 relaxin. Binding to Mn^2+-DTPA-(A)-H2 to RXFP1(1–72) and mutants was monitored by recording 2D ^1H-^15N HSQC (2,048 × 256 data points) for 0.2 μM Mn^2+-DTPA-(A)-H2 against 50 μM RXFP1(1–72). H2 relaxin and its truncates such as A-chain (9–24), H2/I5 chimera and Phe23Ala A-chain mutant H2 were titrated into a complex of 50 μM RXFP1(1–72) and 0.2 μM Mn^2+-DTPA-(A)-H2 with increasing concentrations ranging from 5 to 50 μM.

RXFP1 [2] = biological target: T1, RXFP1; conditions: versus H2 relaxin; cited from earlier work; remark: listed apart in the source

Substance	potency for RXFP1 (RXFP1 [1])	competition with Mn2+-DTPA-(A)-H2 for RXFP1(1–72) (peak intensities, chemical shifts) (RXFP1(1–72))	affinity for RXFP1 (RXFP1 [2])	activation of RXFP1 (RXFP1 [1])	binding affinity for RXFP1 (RXFP1 [2])	potency at RXFP1 (RXFP1 [1])	affinity at RXFP1 (RXFP1 [2])
A-chain (9–24) H2: N-terminally truncated A-chain (9–24) H2 peptide (KCCHVGCTKRSLARFC; ends and bridges not checked; cysteine pairing not given here; UniProt P04090 170-185, looked up, fragment)	decreased	the gain in peak intensity was not as pronounced as that recorded with native H2 peptide	decreased	–	–	–	–
F23A: H2 relaxin mutant F23A; destabilizes the secondary structure of the A-chain (QLYSALANKCCHVGCTKRSLARAC; ends and bridges not checked; cysteine pairing not given here; UniProt P04090 162-185, looked up, variant F23A)	–	did not compete	–	significant loss	significant loss	–	–
H2-(B1–25): B-chain truncate of H2 relaxin (DSWMEEVIKLCGRELVRAQIAICGM; ends and bridges not checked; cysteine pairing not given here; UniProt P04090 25-49, looked up, fragment)	–	did not detect any significant difference in binding	–	–	–	retain their native affinity and potency	retain their native affinity and potency
H2-(B5–29): B-chain truncate of H2 relaxin (EEVIKLCGRELVRAQIAICGMSTWS; ends and bridges not checked; cysteine pairing not given here; UniProt P04090 29-53, looked up, fragment)	–	did not detect any significant difference in binding	–	–	–	retain their native affinity and potency	retain their native affinity and potency
H2/I5-2: A-chain H2 chimeric analogue; His12 and Val13 (H2) replaced by Thr12 and Asp13 (INSL5) (QLYSALANKCCTDGCTKRSLARFC; ends and bridges not checked; cysteine pairing not given here; UniProt P04090 162-185, looked up, variant H12T V13D)	–	no changes were observed in peak intensities or chemical shifts; also recorded: could not bind	–	retains the ability to activate	modest loss of binding	–	–
